In a protein production outcome set (Wang et al. 2014) one finds protein production data, which are given here for nine sequences.
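Further: failed if final PepcDB status was selected cloned or expressed and not failed if soluble or beyond.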

The data set can be described thus: label from the status in PepcDB records.
For the sequence “MTFEDPSFWAALLTAATTAGAITILVALVRRNQAKGPDRRAREDAEIFLGLSDGLIVLDDGGRVSALNRAAQRMTGQEGEAAVGKSARRLLPGLESVLEGKDRLASSLGLWCRLPATGREEALASTLGALLSETTGPAGTRTVLVLRDISEQIRLTEVDDWLRVIDGHLLAGTSLGDLANDLCERVARAFGLPLLWIGVPRPEGLLVVGKGGSEAARLSAYPEGRGDEGTQGVAGRTLRSGRAQSDDAGEGWAAPTWAPGVPLGRAYCVGLRARGEVVAVLCLRGHGEAPSPALSRALEALGPRLGEAIVYERGQSLMRLQSAAIAAAANAIVITDGEGRVEWVNEAYHLLSGYERDQIIGTLPAVLAGPSAANPTAIEAWPTLRAGQVWRGEIHETHRDGRTYIVDKTITPIVDASGRLSHLVAVDEDVTARKKAEERIRYLSNYDTLTRLPNRVLFRDRLYQAVVQARRGHGGLAVMFIDLDQFSLVNDTLGHAAGDHLLMTIASRINAAAEEADTVARVGGDEFALIQTALTSADSAASLARRLIDVIRTPVDLGGREVVIGANVGIAIYPQDGTDPDNLMKNADMAMYRAVKSGDDSCCFFSNEMNAEAAVRLSLEEDLRRALDSGDQLFLHYQLQFCIESGRPVGAEALARWTHPTLGAIPPTRFIPVAEDSGLILALGDWVLGTALAEYARWRAAGCGRLTIAVNMSAVQFRQKGLVERVTDLLAQHGVPPEDLELELTESMLMQDADQAVAQLTALSQAGIRLSIDDFGTGYSSLGYLKLFRVDKLKVDQSFVRDVTEDGNDAVIARAIINLGHSLGLEVIAEGVETPEQMAYLRREGCDVVQGYLMAYPEPGETVARRLLALDALSAAPAAVVMSRSD”, the protein production result is recorded as “failed”.
“MAANSNSRVASNHTSKKQKVRRNIHPFTNNTRIKRASKIVKFNDSGEGDHVSDQRSNKENVLTYKSLKSRASDLLKMRETLPVYQHKREIMSYIESNPVTVLIGETGSGKSTQIPQFVLEKLYDTKKHGSIAVTQPRRVAAINLATRVAQEHGCKLGEQVGYSVRFDNTTTTRTRLKYLTDGMLLRELMMNSDLREYSVIVIDEAHERTVLTDLILGFLKSLIQGPRPDLRIIVMSATLQAEKFSEFFNNAPILFVEGRKFDVKQYYLKAPTDDIVDAVIRCCIQINQGEELGDILCFLPGQEEIDKAVTIMEKIAKYVSDEAPVPLIVPYPLYAALPAVQQSLVFAPIKGFKRKVVFSTNIAETSVTISGVKFVVDSGLRKVKVWRHQLGLATLLTVPISQASAMQRSGRAGRESEGKSFRLYCESDYVKLPKQSEPEIARSDVTSPVLMLKRYGVDDLLNWTWFENPGKEAIVMGLQELYELGALDTRGKITKRGQQMALLPLQPHLSSVLIKASEVGCLSQVIDIVSCLSVENLLLNPSPEERDEVNERRLSLCNAGKRYGDLIMLKELFDIYFYELGKSQDASSERNDWCKGLCISIRGFKNVIRVRDQLRVYCKRLFSSISEEDEESKKIGEDGELISKILKCFLTGFIKNTAIGMPDRSYRTVSTGEPISIHPSSMLFMNKSCPGIMYTEYVFTTKGYARNVSRIELSWLQEVVTNAAAVAKQKVSDSK”: the protein production result is “failed”.
The result for “MTHVNIMAGGPQACLPAAWEQLPGVWIGVDRGTLRLVRAGIHPELAVGDFDSLTLEELRLVRGHVQKLQQVPSEKDDTDTELAVKAALQASSSGDVTLVGGTGGRLDHFLSNLFLPLQPRFLADVERLHLFDVQNWVDYYSPGEHEIKPLPGYRYVAVVNLTPVADLTIVGAKYPLKPWRAGYPYAWASNEFLGKQPFTVSWTTGQVAIIYSRDRRGQKLDNLEHHHHHH” reads “not failed”.
For the sequence “MSKVFICAAIPDEQAIKEEGAVAVATAIEAGDERRARAKFHWQFLEHYPAAQDCAYKFLVCEDKPGIPRPALDSWDAEYMQENRWDEGAASFVPVETESDPMNVAFDKLAPEVQNAVMVKFDTCENITVDMVISAQELLQEDMATFDGHIVEALMKMPEVNAMYPELKLHAIGWVKHKCKPGAKWPEIQAEMRIWKKRREGERKETGKYTSVVDLARARVHRQHTENSAEKIPPVTAVIRREYKQTWKTLDDELAYALWPGDVDAGNIDGSIHRWAKNEVIDNDREDWKRISASMRKQPDALRYDRQTIFGLVRERPIDIHKDPVALNKYITEYLTTKGVFEDEGTNQSATDTLSSPVPETDAVETAIPDNEKTECKVEVEPSVEREGPFYFLFTDKDGEKYGRANKLSGLDKALAAGATEITKEEYFARKNGTYTGLPQNANTAQNSEQPEPVKVTADEVKKIMQAANISQPDANQLLAASRGEFVAGISDPNDPKWVKGIETRDSVNQNQQETEQNDQKAEQNSPNTQQNEPETKQPEPVAQQEPEKVCTACGQTGGGNCPDCGAVMGDATYQETFDEEYQVEVQEDDPEEMEGAEHPHKENTDGNQHHDSDNETGETADHSIKVNGHQEITSTSRTCDHLMIDLETMGKNPDAPIISIGAIFFDPQTGDMGPEFSKTIDLETAGGVIDRDTIKWWLKQSREAQSAIMTDEIPLDDALLQLREFIDENSGEFFVQVWGNGANFDNTILRRSYERQGIPCPWRYYNDRDVRTIVELGKAIDFDARTAIPFEGERHNALDDARYQAKYVSVIWQKLIPNQADF”, the protein production result was “failed”.
“MGHHHHHHSHMTKREYDQCRIQVRLPDGTSLTQTFRAREQLAAVRLYVELHRGEELGGGQDPVQLLSGFPRRAFSEADMERPLQELGLVPSAVLIVAKKCPS”: the protein production entry was “failed”.
Regarding “MREPVDLRRQRILAAVQARGTARVRDLADELQVSVVTVRRDVEELTREGRLSRGHGVVRSTLPARESAPEAVPAAGDRVAVVVPVRHSYLTETLHGARTVLERAGVRMALHLAPQASGAERPLVERALADGADGLLIAPRWRGRADEEADHEWLAGTGVPTVLMERRPWRGSALHALDSVCSDHWYGAHLAVEHLVGLGHRRIVVATRHDSPTARSLRAAFTEIAGAHPLVERWAWTLVAPEAGADGPYSADETAEPPALMRKVGATAMVLHGDVDALMVVQRLAEEGVRVPEDCSVVAYDDVVAGLAAPPLTAVSPPKAEVGHTAAELLLQRLTEAPGGRRPGRRVELLPRLMVRGSTDRSVEPLDE”, the protein production entry is “failed”.
As to “MPANPRQDLDRYRAKRDFARTPEPQGRSEAPRPEAESLSFVVQKHAASRLHWDFRLEWNGVLLSWAVTRGPSPDPSARRLAVRTEDHPLDYAEFEGTIPKGEYGGGTVMLWDRGTWEPQGDFAEGLRTGQLKIRLAGERMRGRWTLVRMKPRPREKAENWLLIKEHDTHESEQTEELVERHMTSVATGRTMEQIAAGKAPPRRTRQAALPAFRPLQLARLVSAAPEGEDWIHETKFDGYRCLAALAGGRARLYTRSGLDWTAKFGALVEDVEALEAQEALIDGEVIAPGREGGSFSELQARLKSGGQLLFMTFDLLLLDGEDLTGQPLLARKERLKTLIGKGRGAVRFSGHIRGHGPEVHERICAAGLEGIVSKRASAPYAGSRNGDWLKVKCAHRQEFVICGWNASDKPGRPFASLVMGSYEKSRLVYRGSVGSGFGAPLFRELKPLLAERAQSACPFDRTPAEAKGAHWLKPELVAEVSFTELTAEGHIRHGVFAGLRSDKDAREVRLEEPAPETPAPRKSGVRKKGTKTARPDAPSPDEPAPEPARKPRTARGEKKETTMARPDDLRVAGIRISHPDRRIYDRPAVTKREVAEHAEALAPRMLRFLKDRPVSLLRCPEGAAAECFFQKHRTRGMPVAMKTVPVETKSGPEDFITLPDVAALVGATQMGTLEFHIWGSRNRSLQRPDRLVFDLDPDEGLDFAHVRTAAAELRGLLTDLGLPSVPMLSGGKGVHVIVPLKPKAEWESVKLFSRALATHLAQEAPDRYTATMAKAGRKGRIFIDWLRNDRGSTAIAPYSLRARPGAPVATPVDWDELASARSGGDWTIRSIRDRLDRPCPLAEASARPATLGRTVIGRLERLVAGGKP”, the protein production entry is listed as “failed”.
With “MDEDGFSQCSKHFSKRGYFSGGGVCPFCLHERLSSLCPDCAHDLPCSCSSRAAVSFSPSSSSSSSSFSIFAGDISFNISGVGSVGRVASLIECEPAFRRSKSMAIPIKPDSVIDSGLDHGRSKKTSSFWRIFMGNRGDTKPAIMKKSRSVAVAGEFGFSPVPVPATGKGKGWNFPSPIKVFRQSRVSKMIFQQRSPLYRG”, the protein production result is listed as “failed”.
As to “MQNPIDSLLYVKISAEQAGKIFENLESSIPLPIQLSEPGQKEDFKAENIKPEMILAGMLTVFAYDRENPHITYYRKIFNLLRPDIRKEMTEAAIIKIKNNDFDMAEEILLSLEGLNPDDGITKLNLALLMEERSQFCEMRELFEDALSFNKRAEELYSELILFEPPLPGVFFNAAYFFIKQKNYIKAKSLLKTYLEIENDSSETAEFRKAKASELLKTISEQALDDELFQKAYKCIDLGEEEKAAESIKLFLRKNPKVWNAWFLLGWALRRMGRWEDARSSFLKTIELLENSEISDKEPLCDVYNELAICLMELELFDEAEKHLINALSLDSENIKIISNLGTLALKQGKQEEAEAFFRTVLEINPDDKIALNVLGKPRA”, the protein production result was “failed”.
